# Measured values taken from publication PMC13499124, “Insights into how JIP3 and JIP4 adaptor proteins relieve the auto-inhibited form of the kinesin-1 motor” (The Journal of Biological Chemistry, 2026).
# Values joined by “and” are separate entries in the source; they are usually repeats but may differ in a detail not shown here. Equal values may be shown once.
# Columns and labels:
# [1] = target: T1, KIF5B-CC3b-CC4 fragment, 6-histidine tag removed (human, UniProt P33176 771-914); assay: MST + other fluorescence titration; JIP3-N-RH1-lz3 wild type and alanine mutants labelled with NHS-fluorescein, constant at 20 nM; KIF5B-CC3b-CC4 without His tag titrated; 50 mM Tris pH 8.0, 200 mM NaCl, 10 mM MgCl2, 0.05% Tween 20; room temperature; Monolith NT.115; the change in overall fluorescence intensity was used for the Kd; 1:1 fit; conditions: both partners purified
# T1 construct: kinesin-1 heavy chain KIF5B, human, NP_004512.1, residues 771-914 (last part of CC3 and CC4); source: E. coli Rosetta, purified (His-Trap, Superdex 75 gel filtration); not shown: His6, N-terminal, cleaved
# [2] = target: T2, KIF5B-CC3b-CC4-dt fragment (human, UniProt P33176 771-963); assay: MST; labelled JIP3/4 fragment (Blue-NHS dye) constant at 20 nM, KIF5B fragment titrated 120 pM to 4 uM (up to 38.2 uM when needed); 50 mM Tris pH 8.0, 200 mM NaCl, 10 mM MgCl2, 0.05% Tween 20; room temperature; Monolith NT.115, premium capillaries, MST-on 0.5-1.5 s; 1:1 Kd fit; three replicates; the paper calls its affinities relative measurements; conditions: both partners purified
# T2 construct: kinesin-1 heavy chain KIF5B, human, NP_004512.1, residues 771-963 (last part of CC3, CC4 and distal tail); pET28 plasmid, NdeI/XhoI; the methods call it CC3-CC4-dt; also called KIF5B-CC3-CC4-dt; KIF5B-Tail; source: E. coli Rosetta, purified (His-Trap, Superdex 75 gel filtration); not shown: His6, N-terminal, kept
# [3] = target: T3, KIF5B-CC3b-CC4 fragment, with N-terminal 6-histidine tag (human, UniProt P33176 771-914); assay: as above; conditions: both partners purified
# T3 construct: kinesin-1 heavy chain KIF5B, human, NP_004512.1, residues 771-914 (last part of CC3 and CC4); also called CC3-CC4; source: E. coli Rosetta, purified (His-Trap, Superdex 75 gel filtration); not shown: His6, N-terminal, kept
# [4] = target: T2, KIF5B-CC3b-CC4-dt fragment; assay: as above; conditions: both partners purified; remark: listed apart in the source
# [5] = target: the molecule itself; assay: SEC-MALS; JIP3/4-Nter fragments in solution, single peak; dimer; conditions not shown (Fig. S1B, Table S2)
# T2 sequence (P33176 771-963): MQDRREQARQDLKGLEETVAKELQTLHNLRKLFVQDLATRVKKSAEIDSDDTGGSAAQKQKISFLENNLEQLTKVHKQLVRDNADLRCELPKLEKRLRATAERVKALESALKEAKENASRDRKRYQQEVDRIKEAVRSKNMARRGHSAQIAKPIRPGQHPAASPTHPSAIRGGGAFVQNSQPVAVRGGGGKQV
# T1 sequence (P33176 771-914): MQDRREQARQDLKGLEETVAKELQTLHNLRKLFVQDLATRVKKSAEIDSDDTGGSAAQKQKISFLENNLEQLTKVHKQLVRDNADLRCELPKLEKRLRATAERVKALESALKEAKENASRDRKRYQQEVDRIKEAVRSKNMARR
# T3 sequence (P33176 771-914): as above
Binder,Kd [1],Kd [2],Kd [4],stoichiometry N [5],other results
"JIP3-N-RH1-lz3 R42A (domain or fragment, mouse, UniProt Q9ESN9-1 1-100, looked up, labelled with NHS-fluorescein (Thermo Fisher Scientific), JIP3, mouse, NP_038959.2, residues 1-100 (N-RH1-lz3); also called JIP3-R42A; source: E. coli Rosetta, purified (His-Trap, gel filtration, thrombin cleavage, gel filtration); not shown: His tag, N-terminal, cleaved; thioredoxin, N-terminal, cleaved) MMEIQMDEGGGVVVYQDDYCSGSVMSERVSGLAGSIYREFEALIHCYDEEVVKELMPLVVNVLENLDSVLSENQEHEVELELLREDNEQLLTQYEREKAL",90.8 ± 12.6 nM,–,–,–,–
"JIP3-N-RH1-lz3 N61A (domain or fragment, mouse, UniProt Q9ESN9-1 1-100, looked up, labelled with a fluorescent dye in the MST assay (legend of Figure 4), JIP3, mouse, NP_038959.2, residues 1-100 (N-RH1-lz3), residue changed to that of JIP4; also called JIP3-N61A; Asn61 mutant; source: E. coli Rosetta, purified (His-Trap, gel filtration, thrombin cleavage, gel filtration); not shown: His tag, N-terminal, cleaved; thioredoxin, N-terminal, cleaved) MMEIQMDEGGGVVVYQDDYCSGSVMSERVSGLAGSIYREFERLIHCYDEEVVKELMPLVVAVLENLDSVLSENQEHEVELELLREDNEQLLTQYEREKAL",–,29.9 ± 3 nM,–,–,–
"JIP3-N-RH1-lz3 fragment (domain or fragment, mouse, UniProt Q9ESN9-1 1-100, looked up, labelled with the dye NHS-NT-488 (Blue-NHS, NanoTemper) in Tables 1 and 3; labelled with NHS-fluorescein (Thermo Fisher Scientific) in Table 2, JIP3, mouse, NP_038959.2, residues 1-100 (N-terminus, RH1 domain and first three heptad repeats of LZI); Unlabelled in SEC-MALS; also called JIP3-WT; wild-type JIP3-N-RH1-lz3; source: E. coli Rosetta, purified (His-Trap, gel filtration, thrombin cleavage, gel filtration); not shown: His tag, N-terminal, cleaved; thioredoxin, N-terminal, cleaved) MMEIQMDEGGGVVVYQDDYCSGSVMSERVSGLAGSIYREFERLIHCYDEEVVKELMPLVVNVLENLDSVLSENQEHEVELELLREDNEQLLTQYEREKAL",148 ± 21.4 nM,20.6 ± 2.6 nM,14.7 nM and 18.3 nM,2,Kd [3]: 77.7 ± 12 nM
"JIP3-N-RH1-lz3 N65A (domain or fragment, mouse, UniProt Q9ESN9-1 1-100, looked up, labelled with NHS-fluorescein (Thermo Fisher Scientific), JIP3, mouse, NP_038959.2, residues 1-100 (N-RH1-lz3); also called JIP3-N65A; source: E. coli Rosetta, purified (His-Trap, gel filtration, thrombin cleavage, gel filtration); not shown: His tag, N-terminal, cleaved; thioredoxin, N-terminal, cleaved) MMEIQMDEGGGVVVYQDDYCSGSVMSERVSGLAGSIYREFERLIHCYDEEVVKELMPLVVNVLEALDSVLSENQEHEVELELLREDNEQLLTQYEREKAL",118 ± 23 nM,–,–,–,–
"JIP3-N-RH1-lz3 E41A (domain or fragment, mouse, UniProt Q9ESN9-1 1-100, looked up, labelled with NHS-fluorescein (Thermo Fisher Scientific), JIP3, mouse, NP_038959.2, residues 1-100 (N-RH1-lz3); also called JIP3-E41A; source: E. coli Rosetta, purified (His-Trap, gel filtration, thrombin cleavage, gel filtration); not shown: His tag, N-terminal, cleaved; thioredoxin, N-terminal, cleaved) MMEIQMDEGGGVVVYQDDYCSGSVMSERVSGLAGSIYREFARLIHCYDEEVVKELMPLVVNVLENLDSVLSENQEHEVELELLREDNEQLLTQYEREKAL",204 ± 57.8 nM,–,–,–,–
"JIP3-N-RH1-lz3 H45G-C46R (domain or fragment, mouse, UniProt Q9ESN9-1 1-100, looked up, labelled with a fluorescent dye in the MST assay (legend of Figure 4), JIP3, mouse, NP_038959.2, residues 1-100 (N-RH1-lz3), residues changed to those of JIP4; also called JIP3-H45G-C46R; source: E. coli Rosetta, purified (His-Trap, gel filtration, thrombin cleavage, gel filtration); not shown: His tag, N-terminal, cleaved; thioredoxin, N-terminal, cleaved) MMEIQMDEGGGVVVYQDDYCSGSVMSERVSGLAGSIYREFERLIGRYDEEVVKELMPLVVNVLENLDSVLSENQEHEVELELLREDNEQLLTQYEREKAL",–,198 ± 27.3 nM,–,–,–
"JIP3-N-RH1-lz3 E77Q (domain or fragment, mouse, UniProt Q9ESN9-1 1-100, looked up, labelled with a fluorescent dye in the MST assay (legend of Figure 4), JIP3, mouse, NP_038959.2, residues 1-100 (N-RH1-lz3), residue changed to that of JIP4; also called JIP3-E77Q; source: E. coli Rosetta, purified (His-Trap, gel filtration, thrombin cleavage, gel filtration); not shown: His tag, N-terminal, cleaved; thioredoxin, N-terminal, cleaved) MMEIQMDEGGGVVVYQDDYCSGSVMSERVSGLAGSIYREFERLIHCYDEEVVKELMPLVVNVLENLDSVLSENQEHQVELELLREDNEQLLTQYEREKAL",–,46.8 ± 6.8 nM,–,–,–
"JIP3-N-RH1-LZI fragment (domain or fragment, mouse, UniProt Q9ESN9-1 1-187, looked up, labelled with the dye NHS-NT-488 (Protein Labelling Kit Blue-NHS, NanoTemper) in the MST assay, Unlabelled in SEC-MALS; also called JIP3-N-RH1-LZ1; JIP3-Nter; source: E. coli Rosetta, purified (His-Trap, gel filtration, thrombin cleavage, gel filtration); not shown: His tag, N-terminal, cleaved; thioredoxin, N-terminal, cleaved) MMEIQMDEGGGVVVYQDDYCSGSVMSERVSGLAGSIYREFERLIHCYDEEVVKELMPLVVNVLENLDSVLSENQEHEVELELLREDNEQLLTQYEREKALRKQAEEKFIEFEDALEQEKKELQIQVEHYEFQTRQLELKAKNYADQISRLEERESEMKKEYNALHQRHTEMIQTYVEHIERSKMQQV",–,–,18.8 ± 4 nM,2,–
"JIP3-RH1-lz3 fragment (domain or fragment, mouse, UniProt Q9ESN9-1 22-100, looked up, labelled with the dye NHS-NT-488 (Protein Labelling Kit Blue-NHS, NanoTemper) in the MST assay, JIP3, mouse, NP_038959.2, residues 22-100 (RH1 domain and first three heptad repeats of LZI); Unlabelled in SEC-MALS; source: E. coli Rosetta, purified (His-Trap, gel filtration, thrombin cleavage, gel filtration); not shown: His tag, N-terminal, cleaved; thioredoxin, N-terminal, cleaved) GSVMSERVSGLAGSIYREFERLIHCYDEEVVKELMPLVVNVLENLDSVLSENQEHEVELELLREDNEQLLTQYEREKAL",–,–,79.3 ± 15.9 nM,2,–
